The target in one test is T1, human CD123-Fc (human, UniProt P26951 19-305, limits assumed).
T1 construct: Coupled to a CM5 sensor chip; also called soluble recombinant CD123; not shown: Fc part
T1 sequence (looked up): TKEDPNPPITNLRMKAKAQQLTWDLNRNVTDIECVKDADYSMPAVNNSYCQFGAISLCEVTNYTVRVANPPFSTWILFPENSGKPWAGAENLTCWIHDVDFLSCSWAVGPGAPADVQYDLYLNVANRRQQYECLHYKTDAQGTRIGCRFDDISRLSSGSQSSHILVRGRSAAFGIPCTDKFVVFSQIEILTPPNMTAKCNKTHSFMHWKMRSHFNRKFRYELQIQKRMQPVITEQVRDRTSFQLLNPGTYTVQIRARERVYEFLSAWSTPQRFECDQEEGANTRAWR
Description: SPR, Biacore X100, human CD123-Fc on CM5 chip, 1:1 model; KD CD123 (first number of the cell). The method, then:
Binding of different variants of the targeting module according to the invention was analyzed by SPR measurements using human CD123-Fc coupled to a CM5 sensor chip on a Biacore X100 device (FIG. 2). Targeting modules were purified monomer except for the targeting module according to SEQ ID No. 8. […] For data fitting and KD calculation a 1:1 binding model was applied.

For test [1], the target named is T2, CD123 on CD123 positive AML cells (Oci-AML3, Molm-13, MV4-11, primary AML cells) (human, UniProt P26951 19-378).
T2 construct: whole, on cells; Endogenous CD123 on human AML cell lines; also called target antigen CD123
Put plainly: cellular binding assay per table caption, Molm-13 cells.

Test [2] concerns the target T3, La epitope 5B9 (SEQ ID No. 28) fused to human Fc domain (human, also: fused to human Fc domain, order, isotype, linker not given here).
T3 construct: Coupled to a CM5 sensor chip; not shown: human Fc domain
T3 chain: KPLPEVTDEY
Put plainly: SPR, Biacore X100, La epitope 5B9-human Fc on CM5 chip; KD 5B9 (second number of the cell). How it is done: Furthermore, binding of different variants of the targeting module according to the invention was analyzed using the La epitope 5B9 (SEQ ID No. 28) fused to human Fc domain which was coupled to a CM5 sensor chip on a Biacore X100 device (FIG. 3). The targeting modules were purified monomers. The targeting modules were concentrated between 2.47 to 200 nM and measured in technical duplicates. For data fitting and KD calculation a two-state-reaction binding model was applied.

The target of test [3] is T2, CD123 on CD123 positive AML cells …. Description: cellular binding assay per table caption, Oci-AML3 cells.

No end group written: not given here.

B1: targeting module according to SEQ ID No. 4 (bispecific antibody)
chain: GQVQLVQSGAEVKKPGASVKMSCKASGYTFTDYYMKWVKQAPGQGLEWIGDIIPSNGATFYNQKFQGRATLTVDTSTSTAYMELSSLRSEDTAVYYCTRSHLLRASWFAYWGQGTLVTVSSASGGGGSGGGGSGGGGSDIVMTQSPDSLAVSLGERATINCKSSQSLLNSGNQKNYLTWYLQKPGQPPKLLIYWASTRESGVPDRFSGSGSGTDFTLTISSVQAEDVAVYYCQNDYSYPYTFGGGTKLEIKAAARGDIVMTQSPDSLAVSLGERVTMNCKSSQSLLNSRTPKNYLAWYQQKPGQSPKLLIYWASTRKSGVPDRFSGSGSGTDFTLTISSVQAEDVAVYYCKQSYNLLTFGGGTKLEIKGGGGSGGGGSGASAAGGGGSGGGGSQVQLVESGAEVVKPGASVKLSCKASGYAFTHYYIYWIKQAPGQGLEWIGGVNPSNGGTHFNEKFKSRATLTVDTSISTAYMELSRLRSDDTAVYYCTRSEYDYGLGFAYWGQGTLVTVSSGGGGSHHHHHHHH
notes: also called huCD123_2 + rs5B9-VLVH
As for B1, the Kd is 5.2 nM with human CD123-Fc and 3.4 nM in test [2]. Also, the EC50 worked out at 0.0071 nM in test [1] and 0.026 nM in test [3].

The values above are taken from patent US20250269025A1 (AVENCELL THERAPEUTICS, published 2025).
